Publication PMC1887708

Molecular target: S107-encoded IgG (monoclonal antibody bound by the Fab-binding site of SpA)
Assay: ELISA

Substance “monomeric domain D′ of SpA (domain or fragment)” has a Fab-binding (relative activity in the inhibition immunoassay) of 0.01 M.
